Values of other authors as cited in patent publication US20250341526A1, “NOVEL DYES” (Quantum-Si Incorporated, priority 2024, published 2025).
Substitutions are numbered along the chain they refer to.

B1: PS536: amino acid recognition protein, SEQ ID NO: 164 (protein, listed as Aphis gossypii)
chain: MVCGRVFKMGEPTYNCRECGMDSTCVLCVDCFKRSPHKNHKYKMGTSYGGGCCDCGDVEAWKHDPYCQTHKL
B2: PS524: amino acid recognition protein, SEQ ID NO: 152 (protein, listed as Drosophila ficusphila)
chain: MVCGKVFKNGEPTYSCRECGVDPTCVLCVNCFKRSAHRFHKYKMSTSGGGGCCDCGDDEAWKKDHYCQLHLA
B3: PS531: amino acid recognition protein, SEQ ID NO: 159 (protein, listed as Musca domestica)
chain: B2 chain with N9I, V21M, P23Q, R34Q, F39Y, D58E, Q68E, L69E, A72R
B4: PS522: amino acid recognition protein, SEQ ID NO: 150 (protein, listed as Vombatus ursinus)
chain: MLCGKVFKSGETTYSCRDCAIDPTCVLCMNCFQSSVHKNHRYKMHTSTGGGFCDCGDTEAWKTGPFCTIHEP
B5: PS525: amino acid recognition protein, SEQ ID NO: 153 (protein, listed as Mus musculus)
chain: B4 chain with N30D, T68V, I69D
B6: PS529: amino acid recognition protein, SEQ ID NO: 157 (protein)
chain: B4 chain with S9G, N30D, S34N, V36I, F66L, T68A, I69N
modifications: Chelonia mydas
B7: PS519: amino acid recognition protein, SEQ ID NO: 147 (protein, listed as Manduca sexta)
chain: MLCGRVFKQGEPAYSCRECGMDNTCVLCVECFKVSAHRHHKYKMGQSGGGGCCDCGDTEAWKRDPFCELHAA
B8: PS532: amino acid recognition protein, SEQ ID NO: 160 (protein, listed as Schizosaccharomyces cryophilus)
chain: MSCGRIFKKGEVFYRCKTCSVDSNSALCVKCFRATDHHGHETSFTISAGSGGCCDCGNSAAWIRDMPCKIHNR
B9: PS509: amino acid recognition protein, SEQ ID NO: 137 (protein)
chain: MICGHGFKTGEPTYSCRDCATDPTCVLCISCFQKSPHREHRYKMSASGGGGYCDCGDPEAWKIEPFCEQHKP
modifications: Lottia gigantean
B10: PS523: amino acid recognition protein, SEQ ID NO: 151 (protein, listed as Saccharomycetaceae sp.)
chain: MAKSHRHTGRNCGRAFQPGEPLYRCQECAYDDTCVLCISCFNPDDHVNHHVSTHICNELHDGICDCGDAEAWNVPLHCKAEED
B11: PS510: amino acid recognition protein, SEQ ID NO: 138 (protein, listed as Camponotus floridanus)
chain: MICGRMFKMGEPTYSCRQCGMDSTCVLCVDCFKQSAHRNHKYKMGTSSGGGCCDCGDTEAWKNEPFCKIHLA
B12: PS515: amino acid recognition protein, SEQ ID NO: 143 (protein, listed as Wasmannia auropunctata)
chain: B11 chain with R5K, M9I, Q18E, N63K, I69T, L71V, A72V
B13: PS537: amino acid recognition protein, SEQ ID NO: 165 (protein, listed as Aedes aegypti)
chain: MVCGRVFKIGEPTYSCRECSMDPTCVLCSSCFKKSSHRLHKYKMSTSGGGGCCDCGDHEAWKRDPSCEEHAV
B14: PS535: amino acid recognition protein, SEQ ID NO: 163 (protein, listed as Mus musculus)
chain: MLCGRVFKVGEPTYSCRDCAVDPTCVLCMECFLGSIHRDHRYRMTTSGGGGFCDCGDTEAWKEGPYCQKHKL
B15: PS533: amino acid recognition protein, SEQ ID NO: 161 (protein, listed as Contarinia nasturtii)
chain: MVCGRVFKMNEPFYSCRECGMDPTCVLCVNCFKQSAHRHHKYKMGTSAGGGCCDCGDNEAWKQDHYCDEHTK
B16: PS516: amino acid recognition protein, SEQ ID NO: 144 (protein)
chain: MLCGKVFKTGEPTYSCRDCANDPTCVLCIDCFQNGAHKNHRYKMNTSGGGGYCDCGDQEAWTSHPFCNLHSP
modifications: Crassostrea gigas
B17: PS530: amino acid recognition protein, SEQ ID NO: 158 (protein, listed as Acropora millepora)
chain: MLCGKVFKVGEPTYSCRDCGYDNTCVLCINCFQKSIHKNHHYKMNTSGGGGVCDCGDVEAWKEGEACEIHQQ
B18: PS518: amino acid recognition protein, SEQ ID NO: 146 (protein, listed as Nilaparvata lugens)
chain: MVCGRVFKMGEPSYHCRECGMDATCVLCVDCFKKSSHRNHKYKMGTSIGGGCCDCGDVEAWKTEPYCEVHIA
B19: PS508: amino acid recognition protein, SEQ ID NO: 136 (protein)
chain: MLCGRVFKEGETVYSCRDCAIDPTCVLCIECFQKSVHKSHRYKMHASAGGGFCDCGDLEAWKTGPCCSQHDP
modifications: Anabarilius graham
B20: PS512: amino acid recognition protein, SEQ ID NO: 140 (protein, listed as Mastacembelus armatus)
chain: B19 chain with I29M, E30D, K34D, L58V, T63I, C66Y, Q69K
B21: PS520: amino acid recognition protein, SEQ ID NO: 148 (protein, listed as Monopterus albus)
chain: B19 chain with I29M, E30D, K34D, A48S, L58V, T63I, Q69K
B22: PS526: amino acid recognition protein, SEQ ID NO: 154 (protein, listed as Maylandia zebra)
chain: B19 chain with I29M, E30D, K34D, A48S, L58V, T63I, C66Y, Q69K
B23: PS534: amino acid recognition protein, SEQ ID NO: 162 (protein)
chain: MKCGHIFRKGEVFYRCKTCSVDSNSALCVKCFRATSHKDHETSFTVSAGSGGCCDCGNAAAWIGDVSCKIHSH
modifications: Schizosaccharomyces pombe
B24: PS511: amino acid recognition protein, SEQ ID NO: 139 (protein, listed as Habropoda laboriosa)
chain: MICGKVFKMGEATYSCKECGVDPTCVLCADCFKQSAHRHHKYRMGTSSGGGFCDCGDIEAWKKEPFCNTHLA
B25: PS517: amino acid recognition protein, SEQ ID NO: 145 (protein)
chain: MMCGRVFKMGEPTYSCRECGVDSTCVLCVGCFQQSAHRDHKYKMGTSGGGGCCDCGDTEAWKRDPFCEIHMV
modifications: Harpegnathos saltator
B26: PS521: amino acid recognition protein, SEQ ID NO: 149 (protein)
chain: MLCGRVFRSGEPTYSCRDCAVDPTCVLCIDCFNNGAHRKHKYRMSTSSGGGYCDCGDKEAWKTDPLCEIHRK
modifications: Lingula anatine
B27: PS514: amino acid recognition protein, SEQ ID NO: 142 (protein, listed as Tribolium castaneum)
chain: MVCGRVFKLGEPTYSCRECGMDNTCVLCVNCFKNSEHRFHKYKMGTSQGGGCCDCGDVEAWKKAPFCDVHIA
B28: PS527: amino acid recognition protein, SEQ ID NO: 155 (protein, listed as Mizuhopecten yessoensis)
chain: MLCGKVFKYGEPTYSCRDCANDPTCVLCIDCFQKSAHKKHRYKMSTSGGGGYCDCGDSEAWKTAPFCSNHKA
B29: PS513: amino acid recognition protein, SEQ ID NO: 141 (protein, listed as Pyrenophora seminiperda)
chain: MPCGHIFKNGEATYRCKTCTADDTCVLCARCFDASDHEGHQVFVSVSPGNSGCCDCGDDEAWVRPVHCNIHSA
B30: PS528: amino acid recognition protein, SEQ ID NO: 156 (protein, listed as Kluyveromyces lactis)
chain: MHSKFNHAGRICGAKFRVGEPIYRCKECSFDDTCVLCVNCFNPKDHVGHHVYTSICTEFNNGICDCGDKEAWNHELNCKGAED

System: amino acid at a terminal position of a polypeptide
Conditions: Table 2; amino acid at terminal position (phosphotyrosine also internal); inferred from literature and/or demonstrated by the inventors; cited from earlier work

Binding Pref., K, R, H:
B1
B2
B3
B4
B5
B6
B7
B8
B9
B10
B11
B12
B13
B14
B15
B16
B17
B18
B19
B20
B21
B22
B23
B24
B25
B26
B27
B28
B29
B30
